Here are results for one substance from doi:10.1101/2025.03.13.642734.

The assay addresses ExsA-His6 (Pseudomonas aeruginosa) (UniProt P26993).
Sequence of UniProt P26993 (P26993 whole entry): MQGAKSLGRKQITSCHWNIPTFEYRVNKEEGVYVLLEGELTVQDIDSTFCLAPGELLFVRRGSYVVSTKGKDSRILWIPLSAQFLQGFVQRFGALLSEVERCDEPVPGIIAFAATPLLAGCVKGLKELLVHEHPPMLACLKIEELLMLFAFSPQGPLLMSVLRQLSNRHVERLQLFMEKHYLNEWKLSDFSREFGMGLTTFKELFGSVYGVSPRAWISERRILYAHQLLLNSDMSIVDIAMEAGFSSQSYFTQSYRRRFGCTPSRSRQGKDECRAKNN

Take GST-Dap2 (natural protein): the EMSA: ExsA-exsC promoter DNA complex with increasing concentrations of GST-Dap2 came to 1 µM.
